Target: recombinant human full-length Tau (2N4R, 441 aa), non-phosphorylated (human, UniProt P10636-8 1-441)
Assay: SPR

Kd: 360 nM
B1: Nup98-FG/FS (full F/S mutant of Nup98-FG) (domain or fragment)
chain: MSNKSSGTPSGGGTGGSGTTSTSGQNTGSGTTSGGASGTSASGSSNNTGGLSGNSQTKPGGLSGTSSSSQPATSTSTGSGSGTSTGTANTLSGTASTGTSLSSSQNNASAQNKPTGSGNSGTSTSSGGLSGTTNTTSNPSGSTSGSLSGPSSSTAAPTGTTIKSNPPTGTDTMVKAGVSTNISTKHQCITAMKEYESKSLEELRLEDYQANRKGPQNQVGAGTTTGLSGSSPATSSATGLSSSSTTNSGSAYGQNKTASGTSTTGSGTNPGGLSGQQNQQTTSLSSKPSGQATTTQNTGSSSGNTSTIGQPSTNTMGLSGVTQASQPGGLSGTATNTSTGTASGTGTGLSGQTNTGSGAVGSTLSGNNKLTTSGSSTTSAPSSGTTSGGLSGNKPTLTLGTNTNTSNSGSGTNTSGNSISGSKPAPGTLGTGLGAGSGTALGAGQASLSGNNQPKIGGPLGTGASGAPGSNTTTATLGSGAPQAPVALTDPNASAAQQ

Reference: publication PMC8998617 (2022)
